Data from the supplement of paper PMC12764529.
± gives the half width of the 95% confidence interval.

Key:
[1] = folding stability dG unfold from trypsin proteolysis; higher = more stable
Outline: (§1)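 Mini-proteins designed to be under 80 residues and free of cysteine were carried in a PA-tagged cDNA display construct and digested with trypsin and with chymotrypsin. Each protease was applied at 11 threefold-diluted concentrations, alongside a no-protease condition, before sequencing. K50 came from Bayesian fitting of the sequencing counts, and unfolding free energy was obtained by comparing it with a sequence-predicted unfolded-state K50 and a shared folded-state K50, for each protease separately or for both together. Designs were retained only if their AlphaFold2 dimer inter-PAE exceeded 15.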

[2] = folding stability dG unfold from chymotrypsin proteolysis; higher = more stable
Outline: as §1

[3] = folding stability dG unfold (combined trypsin and chymotrypsin); higher = more stable
Outline: as §1

Sequence	folding stability dG unfold [1]	folding stability dG unfold [2]	folding stability dG unfold [3]
SAGGSAGGGSSITPVEVTPLPEDKYRVLIRITTYLPGGKPRTEEIEVEMPPDETAEEAAARVLSSAGGSAGG [r6_329_JUSTAS]	0.341 ± 0.044 kcal/mol	0.29 ± 0.11 kcal/mol	0.367 ± 0.075 kcal/mol
SAGGSAGGGYAEFETTAVLPDGRVYRAKIVLSPDPDIVKIRLFSPEGEEEIELHPDDPLLLTPGSAGGSAGG [r6_926_TrMRF]	1.46 ± 0.034 kcal/mol	1.66 ± 0.062 kcal/mol	1.62 ± 0.051 kcal/mol
SAGGSAGGGYELRVTVYDPRTGKPVAEATFTATSPEEAEARFEEIRRALPPEYLVFAEIRPVPESAGGSAGG [r6_688_TrMRF]	4.94 ± 0.38 kcal/mol	5.19 ± 0.13 kcal/mol	5.25 ± 0.11 kcal/mol
SAGGSAGGIEAVREALEDMPPGEEKEITIPVPGDPNYYIKFTIRTKGNKIKIPIEIEPMPPGQMSAGGSAGG [r6_393_TrROS]	0.632 ± 0.16 kcal/mol	1.63 ± 0.39 kcal/mol	1.08 ± 0.38 kcal/mol
SAGGSAGGIHPDVKVKLVKIVSVEEGEGEVVAKALVELPNGERVVVSSEVLKELLEENPDVDVSSAGGSAGG [r6_77_TrMRF]	0.301 ± 0.056 kcal/mol	1.02 ± 0.067 kcal/mol	0.819 ± 0.18 kcal/mol
SAGGSAGGIKAPDGQEYHIILFPITIPMEQKVERPMPDGDPRPETRTVSIKIPIWFAIPPGQKISAGGSAGG [r6_526_TrROS]	1.14 ± 0.029 kcal/mol	1.5 ± 0.12 kcal/mol	1.29 ± 0.13 kcal/mol
SAGGSAGGIKEILKEARENPENAESVTIRIPMEVPVTRYDPDNGEPETHPHPVPGEITIPPDDLSAGGSAGG [r6_560_TrROS]	0.435 ± 0.019 kcal/mol	1.16 ± 0.043 kcal/mol	0.889 ± 0.051 kcal/mol
SAGGSAGGIKYRVMVHNPESGRWHRIDDIEIDPPDGRIKIRFPGNGKEITIPPGYPIMISPDMLSAGGSAGG [r6_885_TrROS]	0.662 ± 0.1 kcal/mol	0.793 ± 0.17 kcal/mol	0.795 ± 0.071 kcal/mol
SAGGSAGGIMIDSPEQMEEFAKDFFQNGYHEVPIHVMDPNGNWQTFPFTIEVPPPKPEPDPGKKSAGGSAGG [r6_258_TrROS]	-0.648 ± 0.12 kcal/mol	0.411 ± 0.25 kcal/mol	0.111 ± 0.29 kcal/mol
SAGGSAGGITIRDPDNGIEVKILKITPNHMIIQAEFPNGRNYMIEMPPDSLKPGDEIPMTVHPVSAGGSAGG [r6_152_TrROS]	-0.008 ± 0.17 kcal/mol	-0.14 ± 0.41 kcal/mol	-0.148 ± 0.3 kcal/mol
SAGGSAGGKEFEIEKVEITVENGTITIRMIVRDKETNEYYEVEKTITFDPETKELHVEIKVKKVSAGGSAGG [r6_604_TrROS_Hall]	4.19 ± 0.13 kcal/mol	3.23 ± 0.1 kcal/mol	3.91 ± 0.16 kcal/mol
SAGGSAGGKEFKIVKVEIEEREDGRLKIHITVEPGATPEEVKKALEELGFEVEEVEVVEVEEEESAGGSAGG [r6_543_TrROS_Hall]	1.93 ± 0.086 kcal/mol	2.368 ± 0.023 kcal/mol	2.24 ± 0.092 kcal/mol
SAGGSAGGKEKLIVKIKIEKKVKLENGEEKKVKKTIVVEMTPEEVKELLKKLKKENVTEVEIFPSAGGSAGG [r6_984_TrROS_Hall]	2.7 ± 0.17 kcal/mol	2.51 ± 0.31 kcal/mol	2.55 ± 0.26 kcal/mol
SAGGSAGGKEVKIEIYDSDDGILLVEVPDLDDAVEAVEKLGVELELVPYDPEKGRLLLRLRIPGSAGGSAGG [r6_510_TrMRF]	0.26 ± 0.21 kcal/mol	0.8 ± 0.2 kcal/mol	0.64 ± 0.16 kcal/mol
SAGGSAGGKGGKPKIKLEPINTNPNGWQTFRFEVTPEAIDDLMDDFPNVQVERHPGEMYITVRNSAGGSAGG [r6_395_TrROS]	-0.418 ± 0.56 kcal/mol	-0.0427 ± 0.39 kcal/mol	-0.104 ± 0.23 kcal/mol
SAGGSAGGKIAVIPYVPEEDIPPELRELFGKEGSLSPEEFQELFAEAVARELGEEGAIDAVIVESAGGSAGG [r6_654_TrMRF]	0.618 ± 0.032 kcal/mol	0.721 ± 0.037 kcal/mol	0.778 ± 0.15 kcal/mol
SAGGSAGGKIEEIAKKLNLEVESIEYDKETKKVTVTIKVNGKLYKIEIYVENGKIVKIKIEELPSAGGSAGG [r6_373_TrROS_Hall]	3.3 ± 0.2 kcal/mol	4.3 ± 0.25 kcal/mol	4.01 ± 0.23 kcal/mol
SAGGSAGGKIIINGKEIEPGETITLPNGLKLEVVDGKIKLVVRDEETGEEKEITLSAEELKKLLSAGGSAGG [r6_940_TrROS_Hall]	2.65 ± 0.12 kcal/mol	3.26 ± 0.086 kcal/mol	3.09 ± 0.061 kcal/mol
SAGGSAGGKILVIEIEVDSPEKAVEKAKEIVKELGLPESVKIKEIVFFKEEGDKYRALVLVDLDSAGGSAGG [r6_282_TrMRF]	3.66 ± 0.23 kcal/mol	4.09 ± 0.095 kcal/mol	3.95 ± 0.2 kcal/mol
SAGGSAGGKIRVEVEVEPLPGPEEGGRLLRVRVRVYNENGELLEEIEFPARSPEEAEERLRKAASAGGSAGG [r6_974_TrMRF]	2.05 ± 0.044 kcal/mol	3.46 ± 0.082 kcal/mol	3.15 ± 0.14 kcal/mol
SAGGSAGGKITINGKEYEIVEVKYDKETNTLHFLIKNKDGTLLKISISPNGKIEIKEVPAEELLSAGGSAGG [r6_699_TrROS_Hall]	3.41 ± 0.23 kcal/mol	3.74 ± 0.12 kcal/mol	3.78 ± 0.23 kcal/mol

Sequence	folding stability dG unfold [1]	folding stability dG unfold [2]	folding stability dG unfold [3]
SAGGSAGGKKEIKIYLVSDLPEEDAIETAEKIKKGLAEELGVSPEELNITVEVAILDPENLELNPESAGGSA [r15_918_TrMRF]	0.179 ± 0.049 kcal/mol	0.0161 ± 0.048 kcal/mol	0.1 ± 0.15 kcal/mol
SAGGSAGGKKIEMKIIKNEDGTKLIVFKSKEEAEEALKKAGYEVKIVSVNEEKGYVVIEIRKKKSAGGSAGG [r6_510_TrROS_Hall]	1.17 ± 0.043 kcal/mol	2.21 ± 0.04 kcal/mol	1.9 ± 0.072 kcal/mol
SAGGSAGGKKKKKPPKKKYFYVEIEIELTPEEIEKLKELFPDVKVEVEEKDGKLRVRITVRVKLSAGGSAGG [r6_685_TrROS_Hall]	2.79 ± 0.16 kcal/mol	3.48 ± 0.05 kcal/mol	3.26 ± 0.087 kcal/mol
SAGGSAGGKKKVIEITVKITLFNENGEEVATFEAKITIIEDKETKEYYAVITFKDGSTLVIKLPSAGGSAGG [r6_923_TrROS_Hall]	3.69 ± 0.2 kcal/mol	5.12 ± 0.2 kcal/mol	4.87 ± 0.47 kcal/mol
SAGGSAGGKKKYRALITLRSKDGKPIAPIEIETDSPEELLKTAKKIIEEATKENEPVEIKVEEYSAGGSAGG [r6_285_TrMRF]	1.09 ± 0.054 kcal/mol	1.8 ± 0.093 kcal/mol	1.59 ± 0.11 kcal/mol
SAGGSAGGKKVIVKIKIKVKDKETGEEKEIEITLEFETEEEAKAAIEALKALPPGVEIKIELLPSAGGSAGG [r6_999_TrROS_Hall]	4.42 ± 0.21 kcal/mol	2.72 ± 0.097 kcal/mol	4.19 ± 0.28 kcal/mol
SAGGSAGGKKYRVVVYNPETGEWVEVEEVEFDPETGEVRVRLPGSGKEVTIPKDYPVYLNPELDSAGGSAGG [r6_884_TrMRF]	2.21 ± 0.035 kcal/mol	3.163 ± 0.03 kcal/mol	2.9 ± 0.045 kcal/mol
SAGGSAGGKLKKFKIKEIKIEKNKETNTYTVTITLENGEKLTITAKSKEDAEKALRKLKEAGLLSAGGSAGG [r6_65_TrROS_Hall]	2.81 ± 0.086 kcal/mol	3.39 ± 0.098 kcal/mol	3.02 ± 0.2 kcal/mol
SAGGSAGGKLSIPIHIPGLTPEEARKIVKYFAAAGIPPDNVTIEVQPVPPVPPMTPEEMEKHNKSAGGSAGG [r6_246_TrROS]	-0.288 ± 0.24 kcal/mol	0.988 ± 0.13 kcal/mol	0.614 ± 0.2 kcal/mol
SAGGSAGGKPEVKITLVIEVETEEELKALAEELAALLGAEVEVRVERREDGRLLVTVTITVPAESAGGSAGG [r6_719_TrROS_Hall]	3.28 ± 0.14 kcal/mol	2.77 ± 0.12 kcal/mol	2.97 ± 0.096 kcal/mol
SAGGSAGGKPKIIEEKELEFTRKDGKKVKIKLVKNEDGKVFAFNKDTGKVITLPLDELKALLKSSAGGSAGG [r6_579_TrROS_Hall]	1.87 ± 0.052 kcal/mol	2.37 ± 0.024 kcal/mol	2.27 ± 0.054 kcal/mol
SAGGSAGGKPKMTFPITDIYPPPGGGNVFIRIQSDDKPREFPFPNLENLEIEKDPEDGTVKIKWSAGGSAGG [r6_806_TrROS]	0.129 ± 0.36 kcal/mol	0.307 ± 0.39 kcal/mol	-0.0766 ± 0.31 kcal/mol
SAGGSAGGKSYVRLEVYRRNPETDEWEKIRTEVLETDAASGEEVRRRALERVPEDYLVKVELFPSAGGSAGG [r6_623_TrMRF]	2.01 ± 0.046 kcal/mol	2.872 ± 0.028 kcal/mol	2.62 ± 0.062 kcal/mol
SAGGSAGGKTIEITIKLEDGKELKIKIDSPEELDKITSVELIGPGKIKITVNGKTIEITIKPKPSAGGSAGG [r6_206_TrROS_Hall]	3.45 ± 0.14 kcal/mol	2.77 ± 0.072 kcal/mol	3.2 ± 0.16 kcal/mol
SAGGSAGGKVRVITVKPGETITVEGLPPGAVLITLPDGSVKEFPAGATIKVPPSAEIVVVEKEDSAGGSAGG [r6_866_TrROS_Hall]	0.486 ± 0.022 kcal/mol	0.885 ± 0.04 kcal/mol	0.778 ± 0.1 kcal/mol
SAGGSAGGKYEIVEVEEKEVNGEKYLIFKVKNENGEELLITVSKEDAEKILASLPPGATVEILPSAGGSAGG [r6_111_TrROS_Hall]	3.49 ± 0.56 kcal/mol	3.76 ± 0.14 kcal/mol	3.84 ± 0.25 kcal/mol
SAGGSAGGLEEELKLAKENPGEFEGVTVKLESVIEVTTTDPTTGKPTTKLVRVESEITFPPGLKSAGGSAGG [r6_560_JUSTAS]	0.2 ± 0.13 kcal/mol	1.05 ± 0.1 kcal/mol	0.834 ± 0.2 kcal/mol
SAGGSAGGLPPGQSIEIFIFSMFPTPNGNLNLEMIQITIRIRPVVRKPDNGGEKYVPPDDPDLASAGGSAGG [r6_405_TrROS]	2.87 ± 0.11 kcal/mol	4.36 ± 0.22 kcal/mol	3.97 ± 0.16 kcal/mol
SAGGSAGGLRVVKPEKVVEAIRKIRELVPKNYLVIVDSIEVREEGGKLYVDIPVLVLPVPPELLSAGGSAGG [r6_819_TrMRF]	1.54 ± 0.027 kcal/mol	1.79 ± 0.072 kcal/mol	1.65 ± 0.16 kcal/mol
SAGGSAGGMEVVELTVDELRALLPPGAVLLVYNRKTRKLYEIPVEELEALLKPGDKVRVVVLPPSAGGSAGG [r6_893_TrROS_Hall]	3.62 ± 0.17 kcal/mol	4.39 ± 0.074 kcal/mol	4.17 ± 0.25 kcal/mol
SAGGSAGGMFIALVTITLPNGEKITDLAFFESPEKIYVLNLKDGKWSEPKVEDIKVVPLEELLFSAGGSAGG [r6_558_TrMRF]	1.92 ± 0.12 kcal/mol	2.73 ± 0.069 kcal/mol	2.41 ± 0.18 kcal/mol
